Laboratory results: patent publication US20240026407A1, “MODIFICATION OF SAPONINS” (GLAXOSMITHKLINE BIOLOGICALS SA, priority 2020, published 2024)

Key:
Assay type in all cases: biochemical, Quillaja saponaria
[1] = Experiment 5-1: screening of additional glucosidases for deglycosylation with purified QS-18 (0.04 mg/ml) at pH 7.5 and 30 deg C; conditions: pH 7.5, 30 degrees C, 18 hours, LCMS/MS
Protocol: The 94 additional genes, together with positive control (DNA encoding SEQ ID No. 262) and negative control, were transformed, expressed, lysed and reacted in the same manner as described above for Experiment 4-1, except the reaction was incubated at 30 degrees C. for 18 hours.
Samples were analysed by LCMS/MS according to the procedure in Experiment 4-1.

[2] = Experiment 5-3: screening of additional glucosidases for deglycosylation with QS-18 in treated bark extract (80%) at pH 6 and 35 deg C; conditions: TBE 80% (QS-21 approx. 4 g/L), pH 6, 35 deg C; UV HPLC
Protocol: Experiment 5-1 was repeated, replacing CBE with Treated Bark Extract (TBE) at pH 6. TBE was prepared from CBE by PVPP treatment and concentration, to provide TBE with a QS-21 concentration of approximately 4 g/L. TBE was adjusted to pH 6 by dropwise addition of 2M NaOH with stirring.

[3] = Experiment 5-2: screening of additional glucosidases for deglycosylation with QS-18 in crude bark extract (80%) at pH 6 and 35 deg C; conditions: CBE 80%, pH 6, 35 deg C, 18 hours; UV HPLC
Summary of the method: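 Clarified glucosidase lysate (prepared at pH 6) was incubated with pH 6-adjusted crude bark extract at 35 deg C with shaking for 18 hours. Reactions were quenched with MeCN containing 2% AcOH and hexanophenone, then analysed by UV HPLC.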

B1: 830 (protein)
chain: MGTAHDLEQLIAGLTLEEKIALLAGDSLWTVPGIPRLGIRPLKVSDGPAGVRGSRIVPAAAFPAPVLLGATWDPELVERVGQALAEEAETKGAQVVLAPTINLQRTALGGRNFECFSEDPHLTARLAVAYVRGLQSRGIGACIKHYVANDQEFERHTVSVEVDERTLREVYLFPFAVAVAEADPWCVMAAYNRVGGIYCSEHPWLLTTILREELGYQGVVMSDWFATHSTIEALQAGLDLEMPGPPQWRGDKLREAVERGEVALEVIERSARRVLMLYQRAGRFAPGPETSEERAVDRPEHRALIREVGASGMVLLRNEGILPLDLSTVKRVAVIGPHVRRPAVGGGGSAFVRSHPVVTPLEALRESAPQCEFLVEEGAAIFKLIPPLEGEALGSEGAELAFFANPELAGAPVATIRVRTTDLIWLGEVAPGVDASAFSARLRVTMRPEESGRYVLGATAVGQVRVHLDGTLVLDNWTAPQPGRTYFGFGSAEVRAAVDLEAERAYEIVVEYRKFQPGLPLAGFRFGVVHELSDEERIARSVRAAQQADLALLFVGLSPEWESEGFDRESFDLPGAQNALVTAVADANPNTVVVLTAGSPVNLPWLERVGALLLAWYAGEEVGHAVVDVLTGVREPAGRLPFTYPQRLEDTPAFLNYPGEFGRLRYCEGLFIGYRWYDARQIEPLFPFGFGLGYTRFAYRDLVLDRESLGGEEKLTVTCTVENVGERAGSEVVQLYLAFPPGTVRRPLKELRGFRRVHLMPQGSASVSFTVSPRDLAYFDEAAREWVAPPGEYEIMIGAHARDIRLRGRFLLREELRWDAGGRFRDV
modifications: bacterium
For B1, the “Experiment 5-1 % conv” value [1] was 9.3%, the “Experiment 5-3 % conv” value [2] was <0.5% and the “Experiment 5-2 % conv” value [3] was <0.5%.

B2: 871 (protein, listed as Dactylellina haptotyla)
chain: MLDESVSREIEETLAQLTLEEKISLLAGKDMWRTVPIPDKQVPSIKTSDGPSGARGDSFTGGTKAAFFPSGISMGATFNPELAYEVGQFIGDEVKSKSASVLLAPTACCHRSPLGGRNFESYSEDPLLSGKMASAYIRGVQSKNVAATMKHYAANEQETWRLHVDETIDETTLREIYLKPFEIAMREGRPWAVMSAYNIINGEHCDSNSLTLKQVLRGEWKYEGLVMSDWFGCNSMVDSLLAGLDLEMPGPAKVRPVKELVAKAEKDDSIREAVDKAARRVLTLIAKVGKWKDMTPEAPEISREDPETGKLIRRAGGEGVVLLKNDGALPLQPASLKSIAFVGPNAKATVAGGGGSANLNPNYLTQPYETFVKAIKEIDASIEVPYAQGCIIDRWIPPVNAESGLCRSGGPGSEPGWLVEWFRGHDLKGEVVSSSVFKNSDVFLWDGRPEGLNPAEGYSIRFSGQVSVPEDGNYNIALSTITAGNLYVDGELLIDNWDFKERGNLMMNIGSEEVVKTLELKKGQWYNIEVRNASIWPKDSPRDPPMEEIGALGVRLGLAAVYDNNSLIAQATDSVKNSDAVVIVVGLNNEWESESYDRTQTKLPRNQDELIEEIAKVNKNVIVVNQSGAPIDMPWVENPNVKGIIQAWYAGQEAGNVIADVLLGKQNPSGKLPLTFPVKLEDNPSYNYFPGKDKKVEYTEKLMVGYRYYDTDNVKPRFPFGYGLSYSSFKVGKPVLSTTELSEDGSFTATVEVSNTSAVAGAEVIQLYVQRKTSGTSSIKRPIKELKGFKKIHLQPGETKTAEVTVDDKSLGIWSPEAGKWVVEAGDYEVLVGTSSVYDELAAAGTVVAKSAWSWI
With B2 the “Experiment 5-1 % conv” value [1] was 7.8%, the “Experiment 5-3 % conv” value [2] was <0.5% and the “Experiment 5-2 % conv” value [3] was <0.5%.

B3: 837 (protein, listed as Bifidobacterium magnum)
chain: MTDNLTIGVTEANELSVKEQASLTSGQDAWHLQGIPSKGIPGYMITDGPHGLRKTTAGNGDEMNLDRSVPATCFPPAAGLSSSWNPQLVREVGEAMGEECVQEKVAVILGPGVNIKRNPLGGRNFEYWSEDPYLAGHEAAGIVDGVQSKGVGASLKHFAVNNQETDRFRVSALVSERALREIYLPAFEYIVKHSRPWTVMCSYNKINGVYSSENHWLLTDVLRKEWGFDGIVMSDWGADHNRVAALNAGLNLEMPPSGTDEQVVQGVENGTLKREQLETMAQAMIDLAHKAEDAMNQDGYRYNVDDHNNTARRAARESMVLLKNEEHVLPVKEQDHIAVIGEFARTPRYQGSGSSRINPTRLTSFLDAAQERGVSLTFAPGYTLDQSPADTQLEQEAVDAAAQADTVLMFMGLPDYDESEGFDRTTLAMPAKQLELLGKVTAANKRVVVILSNGSAVTMTPWNESVPAILETWLLGQAGGVALADIVFGDVSPSGRLAQTIPVELTDDPSTINWPGEEHHVNYGEGVFVGYRYYDTFHKPVAYPFGFGLGYADFAIDEVQVRATGVHAAQVRAKVTNLSQDTAASHVVQVYVRPVEPKVPGEASEHVARPVHELKGFAKVYLEPGQSDTVTIDLDERAFAYWSEEFHDWRIEGGEYGIEVGSSSRDIAATVPVTIAGDGKRKPLTVWNTLDEWRKDPVGKAVAGELMAKLREQGADFTGGDTSTEIFMNTLPINSLTALMGPQGNQVEDFLLGEYARRTQ
In the case of B3, the “Experiment 5-1 % conv” value [1] is reported as 7.6%, the “Experiment 5-3 % conv” value [2] is reported as <0.5% and the “Experiment 5-2 % conv” value [3] is reported as <0.5%.

B4: 832 (protein, listed as Arthrobotrys oligospora)
chain: MDATTLKEIEETLAQLTLEEKISLLAGKDFWRTVPLPEKQIPSIKVSDGPSGARGDTFSGGQKAAFFPSGILMGATFNPELAYETGALLGEEVKAKSASVLLAPTACCHRSPLGGRNFESYSEDPLLSGKMASGYIRGVQSRGIAATMKHFVANEQETWRLYVDETIDETTLREIYLKPFEIAMREGQPWAIMTAYNIINGVHCDSHPLALKQVLRGEWNYEGLVMSDWFGCNSMVESLLAGLDLEMPGPARKRPIKEFVEAAEKDESIRKAIDDSARRILTLIAKVGKWKDMTPEAPEYSRNDPETGKLIRRAGGEGTVLLKNEGKTLPLQPGSLKKVAFIGPNAKATVAGGGGSASLEPNYLTQPYETFVNAIKEINGDIEVPWVQGCIIDRWVPNIDVEGGFCRVGGPDSEAGLFLEWFRGYEATGEPVATTVFKTSNAFLWDSRPTSISPSEEFSVKFSGQISVPEDGKYNISLSTITASKLYLNGELLIDNWDFKERGNLMMNVGSEEVVKTIELKKGEWYPILVHNSSIWPKDSPRDPPMEEIGALGIRLGVAPVYDNAVLIAEAADAVKDADAVVIVVGLNNEWESESYDRSDTKLPNNQDDLIEEIAKVNQNVIVVNQSGAPVDMPWAENSNVKAIVQAWYAGQEAGHVIADVLLGKQNPSGKLPLTFPIKVQDNPSYFYFPGRDQKVEYTEKLMVGYRYYDTENVETRFPFGYGLSYSTFSIGEPSLSTAELTEGQTFTANIDVSNTSNVAGAEVVQLYVKRPASTSSIKRPVKELKGFKKVHLGTGETATANITVDDKSLGIWSTEAGKWVVEAGDYEVLIGTSSVQDELKPAGKITVKAAWSWI
With B4 the “Experiment 5-1 % conv” value [1] was 9.8%, the “Experiment 5-3 % conv” value [2] was <0.5% and the “Experiment 5-2 % conv” value [3] was <0.5%.

B5: 845 (protein, listed as Kitasatosporia setae)
chain: MTQLSMPSSLTTPASGTDHRVLDLERKARLVSGGDTFRTSPEPALGLFPIVCSDGPVGVRGERWDEADTALLLPCATALAASWDEELVARMGGLLAAEARRKGVHVVLAPTLNLHRSPLGGRNFECFSEDPLLTARIGAAYIGGVQALGVAATAKHYVANDSETERLTVDARVDERTLREVYLAPFEAAVRAGVWAVMSAYNRVNGTSMVEHPLLAEPLKGEWGFDGLVVSDWGSVREADGPGAAACDLSMPGPNPAWGPALAAAVRAGRVPAAALDDKVERLLRLAGRVGAFDPPPAGRAPVPADPATRGALRAAAVAGTVLLHNPDRLLPLDEPALRRVAVLGPNAATARVQGGGSASVFPAAPVSPLNGLRAALDPSVEVTHAPGVRTELRPTPLAAADCVLPDGSGPGVLVRYLAADGSPLHTEARATGRVLEPSADVDLTAVRTIEVASRFTAPSAGRWRLGVVGLGALRLEADGAVLLDEYVAPLSDDPTYLHVAPSFRQVELELAAGQGVDLLARRTVEPEHGRVLVLAADRPAAELEREFAHAVELAAAADVAVVVVGTTDEHESEGFDRAGLRLPGRQDELVEAVAAVNPRTVVVVNTGSPVLLPWRERVGAVLTCWFPGQEGGGALAEVLLGRAEPGGRLPTTWPDAEADCPVYATAPSGGRLAYAEGPHLGHRGWLRAGRTPAYWFGHGLGWGEWCYLALGEPSAPAADGSRTVRVALRNDGPRRSRETVQLYLSRPDSELDRPVRWLAGFGAVEAGPGERVEVELRLPQRALQHWSVEDRAWRTEPGTFVLHVGPHSGELPLAAALPVGA
In the case of B5, the “Experiment 5-1 % conv” value [1] is reported as 9.2%, the “Experiment 5-3 % conv” value [2] is reported as <0.5% and the “Experiment 5-2 % conv” value [3] is reported as <0.5%.

B6: 883 (protein, listed as Salinispira pacifica)
chain: MKSIQEIRSSLTLEEKASLCSGKDFWNLKSFESKGVPAIMVADGPHGLRKQMESSADHIGIGGSVPATCFPTASAMASSWDTQLLNEVGNALGEECRQEHVAVLLGPGVNIKRSPLCGRNFEYFSEDPYLGGKLAASLIRGVQSMGVGTSLKHFAANNQERRRMIIDAVVDERALRELYLAGFETAVKESSPKTVMCAYNKLNGAFCSENHRLLSEILKEEWGFEGFVVTDWGAVNDRVAGLNAGLDLEMPASGGYNDNLMVEAVQNGTLSENSLNDAVDRILKVVLETHTALQEEFTYDAAAHHRLAQKAESESAVLLKNDKLFPLNSEDFRTEEKHGSQEHKSPKLALIGSFAKEPRYQGSGSSLINPRQLDSAYDAISRELGGDMQLLYAPGYDPADEEPDSRLIQEAVNTAAAADTVIVFAGLPEISESEGFDREHLSMPRSHNDLISAVAQVNPRTAVVLSNGSPVTMPWLDSVPAVLESYLGGQAWGSAISDIIFGRANPSGKLAETFPLSLQDVPSSAQFPGGSASVVYTDSLYVGYRYFSGTGKPVLFPFGHGLSYTRFSYDGLKITGRGTGRTVQCRITNTGSRDGKEVIQLYVHSESSSVFRPEQELKGFSKVSLAPGEEKTVEFRLDDRSFAYWDPGAGDWMVESGNYEIRIAASSADIRLRETIRIDSTQTPSQWAADLRNRIPEFFSPAPELFHDISPESPFRKLLGRPIPPPHWDTREGFTRNSTLEETTRTFIGRILYKAVMREGSRMMSQDADEKSIAMMQAVIREMPLKNLGMMGGDKISMHTVDSLILLLNGKIIRGLGSLLRRK
With B6 the “Experiment 5-1 % conv” value [1] was 7.0%, the “Experiment 5-3 % conv” value [2] was <0.5% and the “Experiment 5-2 % conv” value [3] was <0.5%.
